Patent US12527862B2, “Bactericidal/permeability increasing protein for use in a method of immunization, preferably as an adjuvant in a method of vaccination” (UNIVERSITÄT REGENSBURG, priority 2018, dated 2026)

Assays:
CD3+CD8+ T cells = test: Intracellular IFNγ staining of CD8+ T cells after supernatant stimulation; type: cell-based, C57BL/6J mice; settings: SN BPI vs SN NT, 24h, n=4 (FIG. 13D)
Procedure: Naive CD4+CD25-CD44-CD62L+ T cells were isolated from peripheral lymph nodes and spleen of C57BL/6J mice and purified by MACS and FACS. Naïve CD4+ T cells were cultured in the presence of aCD3 and aCD28 antibodies and dendritic cell-derived supernatant after stimulation with BPI (SN BPI, BPI 200 nM) or after stimulation with ODN 1826 (SN CpG, ODN 1826 20 nM) or after stimulation with BPI and ODN 1826 (SN BPI+CpG, BPI 200 nM, ODN 1826 20 nM) or supernatant without addition of BPI or ODN 1826 (SN NT). On day five, cytokine levels were measured by Luminex. • A. Th1 differentiation as shown by detection of IFNγ (n=3). • B. Th17 differentiation as shown by detection of IL-17 (n=3). • C. […] Lymph node cells were stimulated with aCD3 and aCD28 antibodies and SN BPI or SN NT and incubated for 6h before adding a protein transport inhibitor cocktail and incubating for additional 16h. Cells were fixed and permeabilized and stained for CD3, CD4, CD8, and IFNγ. Lines are connecting the amount of IFNγ-producing CD3+CD8+ T cells after treatment with SN BPI or SN NT for 24h. • Bars represent the means±standard error of the mean. Statistics for comparison were performed with the paired Student's t-test (A to C) or the ratio paired Student's t-test (D).
All described work steps were conducted on ice. […]

[1] = test system: co-culture of lymphnode cells (LNCs) and dendritic cells (DCs); test: Co-culture of lymph node cells and BMDCs, cytokine secretion; type: cell-based, C57BL/6J mice; settings: BPI 200 nM, n=5 (FIG. 12)
Procedure: All methods mentioned in this example were carried out as described in the preceding examples. Peripheral lymph nodes of C57BL/6J mice were collected to obtain lymph node cells. The cells were isolated by pressing the lymph nodes through a […] cell strainer, flushing the homogenate with either RPMI-VLE or PBS, and collecting the cell dispersion in a 50 ml falcon tube. The suspension was centrifuged (300×g, 21° C., 8 min) and the cell pellet was resuspended in 2 to 5 ml of cell culture medium (VLE-RPMI 1640 medium containing glutamine supplemented with 10% heat-inactivated FCS, 10% penicillin-streptomycin and 50 μM sterile-filtered β-Mercaptoethanol). After this procedure the cell suspension was washed once or twice in cell culture medium or PBS by centrifugation (300×g, 21° C., 8 min). BMDCs were seeded and co-cultured with a threefold excess of peripheral lymph node cells in the presence or absence of BPI (200 nM) in in cell culture medium. Supernatans were collected and measured as described in preceding examples.

[2] = test system: murine macrophages (BMDM); test: TNFα ELISA in murine macrophages (BMDM); type: cell-based; settings: LPS Ec 10 ng/ml or BPI 100 nM, 18 h, ELISA (FIG. 4B)
Procedure: Generation of BMDM was carried out similarly to BMDCs; MCSF was used instead of GMSCF for differentiation of BMDM. Cells were re-plated on day 1 of culture and harvested on day 5. On day 1, cells were seeded in new plates and harvested on day 5 for the experiments. Cells were stimulated with LPS Ec (10 ng/ml) or BPI (100 nM) for 18 h before supernatants were collected. TNFα levels were determined by ELISA (OPTEIA™ Murine TNFα ELISA Set, BD Bioscience, Heidelberg, Germany).

BMDCs = test: Cytokine protein secretion by BMDCs (Luminex); type: cell-based, C57BL/6J mice
Procedure: All methods mentioned in this example were carried out as described in the preceding examples. Cells were stimulated with Zymosan depleted (Zymd, 5 μg/ml) from Invivogen (San Diego, CA, USA) or (R)-Pam3CSK4 (bLP, 10 nM) from EMC Microcollections GmbH (Tübingen, Germany). Protein secretion analysis was performed using the supernatants.
To quantify the interleukin and chemokine protein-level after stimulation with huBPI, Zymd, and (R)-Pam CSK4, a multiplex-system was used and determined by using the Luminex® technology (Austin, TX, USA). The cytokines were captured with anti-mouse capture-antibodies and detected by biotinylated antibodies specific for the respective protein (Table 3). Protein concentrations were calculated using a reconstituted standard curve of the analyzed proteins (SM039, #LMC4031, Lot #1438354; Thermo Fisher Scientific; Standard Mix 1a, #EPX010-20603-901, Lot #111709101, eBioscience).

B1: bactericidal/permeability-increasing protein (protein)
chain: RIKIPDYSDSFKIKHLGKGHYSFYSMDIREFQLPSSQISMVPNVGLKFSISNANIKISGKWKAQKRFLKMSGNFDLSIEGMSISADLKLGSNPTSGKPTITCSSCSSHINSVHVHISKSKVGWLIQLFHKKIESALRNKMNSQVCEKVTNSVSSELQPYFQTLPVMTKIDSVAGINYGLVAPPATTAETLDVQMKGEFYSENHHNPPPFAPPVMEFPAAHDRMVYLGLSDYFFNTAGLVYQEAGVLKMTLRDDMIPKESKFRLTTKFFGTFLPEVAKKFPNMKIQIHVSASTPPHLSVQPTGLTFYPAVDVQAFAVLPNSSLASLFLIGMHTTGSMEVSAESNRLVGELKLDRLLLELKHSNIGPFPVELLQDIMNYIVPILVLPRVNEKLQKGFPLPTPARVQLYNVVLQPHQNFLLFGADVVYK
modifications: labeled with NT647 (Monolith NT Protein Labeling Kit RED-NHS) in the MST experiments
notes: recombinant human BPI, aa32-487 of huBPI with N-terminal HA signal peptide, expressed in HEK293T cells
B1 was tested, and the “activation of CD8+ T cells (IFNγ-producing CD3+CD8+ T cells)” value (CD3+CD8+ T cells) was “activation of CD8+ T cells”, the “secretion of IL-4 in co-culture of LNCs and BMDCs” value [1] was “not observed” and the “secretion of IFNγ and IL-17 in co-culture of LNCs and BMDCs” value ([1]; threefold excess of lymph node cells) was “Significant secretion”. For the same molecule, the “TNFα secretion by macrophages” value [2] was “not in response to stimulation with BPI”, the IL-4 level (BMDCs; BMDCs (FIG. 12)) was “not induced” and the “IL-2, IL-12p40/p70, and IL-6 protein secretion” value (BMDCs; Luminex, n>7, 4h (FIG. 3)) was “increase of IL-2, IL-12p40/p70, and IL-6 protein secretion”. The “stimulatory effect on the expression of IL-6 (IL-6 level), BPI vs Zymd vs bLP” value (BMDCs; Zymd 5 μg/ml, bLP 10 nM, Luminex, n>7, 4h (FIG. 3)) was “comparable” and the “increase of IL-2 and IL12p40/p70 compared to Zymd and bLP” value (BMDCs; vs Zymd 5 μg/ml and bLP 10 nM, Luminex, n>7, 4h (FIG. 3)) was “significantly higher”.
